Measured values: article PMC2944823, “Structural Basis for the Secretion of EvpC: A Key Type VI Secretion System Protein from Edwardsiella tarda” (PLoS ONE, 2010)
Several values for one entry are separate records, joined by “and”; a condition that tells them apart may be missing. Equal entries are not always repeated.

Legend:
[1] = target: the molecule itself; assay: AUC; sedimentation velocity, ~2 mg/ml (methods: 2.5 mg/ml), 10 mM Tris-HCl pH 7.0, 200 mM NaCl, with and without DTT, 40,000 rpm, 20°C, absorbance at 280 nm, Sedfit; self-association, dimer and hexamer
[2] = target: the molecule itself; assay: dynamic light scattering; DynaPro instrument, room temperature, EvpC at 6 mg/ml; polydispersity 5%
[3] = target: the molecule itself; assay: SEC; gel filtration (Hiload 16/60 Superdex 75) of EvpC wild type and mutants at 2 mg/ml; self-association, hexamer

B1: EvpC from Edwardsiella tarda PPD130/91, wild type, recombinant with 6His tag at C terminus (pETMevpC) (natural protein)
chain: MAFDTYIKLDKVDGESTDDKHKKWIEVLGFAWGAGNECTMESGTQGLNTGKAMMSVLRVTKWMDCASVKLASAAVQGQNFPTLELEICTQAGDKFAFCIYKFTHVAVSSYQCSGATGGSDRPQETIDFAYKEVTWEYVPQDQNGKAGGKIGPEGWSLITNKKK
modifications: selenomethionine (cells grown in defined M9 medium supplemented with 25 mg/L SelMet)
notes: EvpC, Hcp homolog of the type VI secretion system (EVP cluster), Edwardsiella tarda PPD130/91; evpC gene amplified from genomic DNA; crystal model holds Ala2 to Lys163; K161-K163 are called the C-terminal residues and the model ends at Lys163, so the whole protein (163 residues) is likely. pETM is a pET32 derivative; no other vector-derived residues are told; also called wild type EvpC; Hcp …
Q: B1 was tested. Which “stoichiometry N” value [1] did it give?
A: The value was 2 and 6.

Q: And the “stoichiometry N” value [2]?
A: The value was 12.

B2: EvpC D4A E26A double mutant, 6His tag at C terminus (pETMevpC D4AE26A) (natural protein)
chain: MAFATYIKLDKVDGESTDDKHKKWIAVLGFAWGAGNECTMESGTQGLNTGKAMMSVLRVTKWMDCASVKLASAAVQGQNFPTLELEICTQAGDKFAFCIYKFTHVAVSSYQCSGATGGSDRPQETIDFAYKEVTWEYVPQDQNGKAGGKIGPEGWSLITNKKK
notes: EvpC, Edwardsiella tarda PPD130/91, with D4 and E26 substituted with Ala; The text speaks only of 'double' mutants for the gel filtration; source: expressed (pETM plasmid)
Q: B2 was tested. Which “stoichiometry N” value [3] did it give?
A: Its value is 6.

B3: EvpC D4A E15A E26A triple mutant (natural protein)
chain: MAFATYIKLDKVDGASTDDKHKKWIAVLGFAWGAGNECTMESGTQGLNTGKAMMSVLRVTKWMDCASVKLASAAVQGQNFPTLELEICTQAGDKFAFCIYKFTHVAVSSYQCSGATGGSDRPQETIDFAYKEVTWEYVPQDQNGKAGGKIGPEGWSLITNKKK
notes: EvpC, Edwardsiella tarda PPD130/91, with D4, E15 and E26 substituted with Ala; also called N-terminal triple mutant; N-terminal mutant; source: expressed
Q: Which “stoichiometry N” value [3] does the source give for B3 here?
A: The value was 6.

B4: EvpC E15A E26A double mutant, 6His tag at C terminus (pETMevpC E15AE26A) (natural protein)
chain: MAFDTYIKLDKVDGASTDDKHKKWIAVLGFAWGAGNECTMESGTQGLNTGKAMMSVLRVTKWMDCASVKLASAAVQGQNFPTLELEICTQAGDKFAFCIYKFTHVAVSSYQCSGATGGSDRPQETIDFAYKEVTWEYVPQDQNGKAGGKIGPEGWSLITNKKK
notes: EvpC, Edwardsiella tarda PPD130/91, with E15 and E26 substituted with Ala; The text speaks only of 'double' mutants for the gel filtration; source: expressed (pETM plasmid)
Q: B4 was tested. Which “stoichiometry N” value [3] did it give?
A: Its value is 6.

B5: EvpC D4A E15A double mutant, 6His tag at C terminus (pETMevpC D4AE15A) (natural protein)
chain: MAFATYIKLDKVDGASTDDKHKKWIEVLGFAWGAGNECTMESGTQGLNTGKAMMSVLRVTKWMDCASVKLASAAVQGQNFPTLELEICTQAGDKFAFCIYKFTHVAVSSYQCSGATGGSDRPQETIDFAYKEVTWEYVPQDQNGKAGGKIGPEGWSLITNKKK
notes: EvpC, Edwardsiella tarda PPD130/91, with D4 and E15 substituted with Ala; The text speaks only of 'double' mutants for the gel filtration; source: expressed (pETM plasmid)
Q: B5 was tested. Which “stoichiometry N” value [3] did it give?
A: Its value is 6.

B6: EvpC C-terminal deletion mutant (EvpC M1-N160), K161 K162 K163 deleted (domain or fragment)
chain: MAFDTYIKLDKVDGESTDDKHKKWIEVLGFAWGAGNECTMESGTQGLNTGKAMMSVLRVTKWMDCASVKLASAAVQGQNFPTLELEICTQAGDKFAFCIYKFTHVAVSSYQCSGATGGSDRPQETIDFAYKEVTWEYVPQDQNGKAGGKIGPEGWSLITN
notes: EvpC, Edwardsiella tarda PPD130/91, residues M1-N160, lacking the C-terminal K161, K162 and K163; also called EvpC 1-160; C-terminal mutant; source: expressed
Q: B6 was tested. Which “stoichiometry N” value [3] did it give?
A: The value was 6.
